Source: article PMC9418484 (The Journal of Experimental Medicine, 2022)
Read-outs that look alike come from different tables or passages of the source.

B1: AZ229 (antibody, V domains shown)
VH: EVQLVESGGGLVQPGGSLRLSCAASGFTFSSDDMHWVRQATGKGLEWVSAIGTSGDTYYSESVKGRFTISRDNAKSSLYLQMNSLRAGDTAVYYCARGRVYDGPTSDRHYYYYVMDLWGHGTTVAVSS
VL: DIQMTQSPSSLSASVGDRVTITCRASQSINKYLNWYQQKPGKAPKLLIYAASSLQGGVPSRFSGSGSGTDFTLTITTLQPEDFATYYCQQSYSAPPWTFAQGTKVEIK
B2: AZ090 IgG (antibody, V domains shown)
VH: QVQLVQSGPEVKKPGTSVKVSCKASQFTFSISAVQWVRQARGQRLEWMGWIVVGSGNTDYAQRFQERVTISRDMSAGTVYMELRSLRSEDTAVYYCAAPYCNKTNCRDGFDMWGQGTMVTVSS
VL: EIVLTQSPGTLSLSPGERATLSCRASQSVSSSYLAWYQQKPGQAPRLLIYGASRRATGIPDRFSGSASGTDFILTISRLEPEDFAVYYCQQYRNSPWTFGQGTKVEIK
B3: C105 (antibody, V domains shown)
VH: QVQLVESGGGLIQPGGSLRLSCAASGFTVSSNYMSWVRQAPGKGLEWVSVIYSGGSTYYADSVKGRFTISRDNSKNTLYLQMNSLRAEDTAVYYCARGEGWELPYDYWGQGTLVTVSS
VL: QSALTQPPSASGSPGQSVTISCTGTSSDVGGYKYVSWYQQHPGKAPKLMIYEVSKRPSGVPDRFSGSKSGNTASLTVSGLQAEDEADYYCSSYEGSNNFVVFGGGTKLTVL

Legend:
[1] = molecular target: T1, SARS-CoV-2 Wuhan-Hu-1 receptor-binding domain (RBD), S protein residues 319-539 (SARS-CoV-2 Wuhan-Hu-1, UniProt P0DTC2)
[2] = molecular target: T1, SARS-CoV-2 Wuhan-Hu-1 receptor-binding …; assay: BLI; conditions: both partners purified

Binder	binding result [1]	binding result [2]
B1	binds	
B2		binds
B3		binds
